From FireProtDB (doi:10.1021/bi960052u)

Settings: Equus caballus, pH 7, 10 °C, GdnHCl, Fluorescence, Sodium phosphate 0.1 M

Cytochrome c L95A, P00004, sequence (P00004 whole entry L95A): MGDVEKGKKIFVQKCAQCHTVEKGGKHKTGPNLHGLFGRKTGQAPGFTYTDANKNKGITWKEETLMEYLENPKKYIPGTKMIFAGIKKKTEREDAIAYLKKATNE
Cytochrome c wild type, P00004, sequence (P00004 whole entry): as the sequence (P00004 whole entry L95A) above, with A95L counted along it
Cytochrome c L95V, P00004, sequence (P00004 whole entry L95V): as the sequence (P00004 whole entry L95A) above, with A95V counted along it
Cytochrome c L95I, P00004, sequence (P00004 whole entry L95I): as the sequence (P00004 whole entry L95A) above, with A95I counted along it

| Substance | ddG of mutation (higher = less stable) (structure 1AKK) | denaturant m value (structure 1AKK) | denaturant midpoint (higher = more stable) (structure 1AKK) | unfolding free energy (structure 1AKK) | denaturant m value | denaturant midpoint (higher = more stable) | unfolding free energy |
| --- | --- | --- | --- | --- | --- | --- | --- |
| Cytochrome c L95A, P00004 | 3.5 kcal/mol | 3.7 kcal/mol/M | 1.67 M | 6.2 kcal/mol | – | – | – |
| Cytochrome c L95I, P00004 | -0.2 kcal/mol | 4 kcal/mol/M | 2.47 M | 9.9 kcal/mol | – | – | – |
| Cytochrome c L95V, P00004 | 0.8 kcal/mol | 3.6 kcal/mol/M | 2.47 M | 8.9 kcal/mol | – | – | – |
| Cytochrome c wild type, P00004 | – | – | – | – | 3.5 kcal/mol/M | 2.77 M | 9.7 kcal/mol |
